Reference: article PMC5755574

Target: Alcaligenes xylosoxidans copper nitrite reductase (Alcaligenes xylosoxidans)
Test: crystal structure; as-isolated AxNiR crystals, space group R3, one monomer in the asymmetric unit, trimer formed by crystal symmetry; SRX resting state at 1.6 Å (BL41XU, SPring-8, cryo); the SF-ROX structure (SACLA XFEL, 100 K, 1.6 Å) from the same batch of crystals has near-identical global architecture

stoichiometry N: 3
Substance: Alcaligenes xylosoxidans copper nitrite reductase (enzyme)
